Source: patent publication US20230416343A1 (SORRENTO THERAPEUTICS, published 2023)

Target: S protein of live SARS-CoV-2 WA-1/2020 isolate (SARS-CoV-2, UniProt P0DTC2 14-1273)
Assay: cell-based or functional assay

B1: S1D7270LALA antibody (STI-2020) (antibody, V domains shown)
VH: EVQLVESGGGLIQPGGSLRLSCAASGFTVSSNYMSWVRQAPGKGLEWVSIIYPGGSTEYADSVKGRFTISRDNSRNTLYLQMNSLRAEDTAVYYCARELGYYGMDVWGQGTTVTVSS
VL: DIQMTQSPSSVSASVGDRVTITCRASQGISTWLVWYQQKPGKAPNLLIYGASSLQSGVPSRFSGSGSGTDFTLTISSLQPEDFATYYCQQANAYPYTFGQGTKLEIK
IC50, inhibition of cytopathic effect (CPE) on Vero E6 cells, live virus: 0.055 µg/mL
